The RNAGym collection of RNA variant scans (doi:10.1073/pnas.2313332121)

B1: TPR t1 (parent)
chain: GACCAAUCUGCCCUCAGAGCUCGAGAACAUCUUCGGAUGCAGAGGAGGCAGGCUUCGGUGGCGCGAUAGCGCCAACGUCCUCAACCUCCAAUGCAUCCCACCACAUGAUGAUGCCUGAAGAGCCUUGGUUUUUUG

Variants of: B1
Assay: polymerase ribozyme fitness, log enrichment relative to wild type (log ratio); higher = more active; in vitro selection for triplet polymerase activity
In short: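 The heterodimeric triplet polymerase ribozyme's subunits were each mutagenized into PCR-built libraries and transcribed. Every library was selected once, in triplicate, by annealing with a biotinylated primer, the partner subunit and triplets, incubating frozen at −7 °C, gel-excising extended constructs, capturing on streptavidin beads and running RT-PCR. Input and output libraries were Illumina-sequenced, with genotypes kept only at ≥10 input reads and ≥1 read per output. Fitness, from inverse-variance-weighted replicate averages, is the base-2 logarithm of genotype enrichment over wild-type enrichment.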
For U9A U32A A37U A46C C56A C79A A111G, the “polymerase ribozyme fitness (log ratio)” value was -7.29.
With C8U G39U C49G G63A U78A G128A the “polymerase ribozyme fitness (log ratio)” value was -3.94.
With C8U G113C the “polymerase ribozyme fitness (log ratio)” value was -1.19.
For C8U G51A, the “polymerase ribozyme fitness (log ratio)” value was -1.3.
With U9A A26U the “polymerase ribozyme fitness (log ratio)” value was -1.79.
For C8U U96C, the “polymerase ribozyme fitness (log ratio)” value was 0.939.
With U9C G60U A105U A119G the “polymerase ribozyme fitness (log ratio)” value was -1.05.
With U9A G71U U87A C89A U112G the “polymerase ribozyme fitness (log ratio)” value was -5.05.
For C8U C72G A84U U87C U92G, the “polymerase ribozyme fitness (log ratio)” value was -4.49.
In the case of C8G U32C A66U, the “polymerase ribozyme fitness (log ratio)” value is reported as -0.651.
For U9C C11U G17C A41U, the “polymerase ribozyme fitness (log ratio)” value was -4.76.
For U9A U14G A41C G42U G60U, the “polymerase ribozyme fitness (log ratio)” value was -0.928.
With U9G C72A the “polymerase ribozyme fitness (log ratio)” value was -0.48.
For C8G U30C G60C, the “polymerase ribozyme fitness (log ratio)” value was -4.49.
With C8U C53U C73U A105C U125G the “polymerase ribozyme fitness (log ratio)” value was -1.94.
In the case of C8U C15U C72G G120U, the “polymerase ribozyme fitness (log ratio)” value is reported as 1.39.
In the case of U9G C70A C76U, the “polymerase ribozyme fitness (log ratio)” value is reported as -3.45.
In the case of C8U C15G A46U G113A, the “polymerase ribozyme fitness (log ratio)” value is reported as -5.27.
In the case of C8U C22G U33A A50C G57U G120U, the “polymerase ribozyme fitness (log ratio)” value is reported as -4.54.
For U9C C12G G60C U78C, the “polymerase ribozyme fitness (log ratio)” value was -1.6.
For U9C G60U U109G C114G, the “polymerase ribozyme fitness (log ratio)” value was -3.95.
With C8U A103C the “polymerase ribozyme fitness (log ratio)” value was -4.8.
For C8U G42U, the “polymerase ribozyme fitness (log ratio)” value was -0.81.
With C8U A29U C62U A83C C88G A119G the “polymerase ribozyme fitness (log ratio)” value was -2.75.
With U9G C22U U54G C104U the “polymerase ribozyme fitness (log ratio)” value was -4.59.
For U9C A27C C40G C72A, the “polymerase ribozyme fitness (log ratio)” value was -3.22.
In the case of U9A C49G G93C G120A U131A, the “polymerase ribozyme fitness (log ratio)” value is reported as 0.443.
With C8U G48C G69U the “polymerase ribozyme fitness (log ratio)” value was 0.0683.
With C8U C15A A119G the “polymerase ribozyme fitness (log ratio)” value was 0.435.
For U9A A37C G63C, the “polymerase ribozyme fitness (log ratio)” value was -0.708.
For C8U U55G G113C, the “polymerase ribozyme fitness (log ratio)” value was -1.85.
With U9C A16G G57C G110C the “polymerase ribozyme fitness (log ratio)” value was -4.22.
With U9A C114A the “polymerase ribozyme fitness (log ratio)” value was 0.123.
In the case of U9C A90G C115U U131C, the “polymerase ribozyme fitness (log ratio)” value is reported as 1.24.
In the case of U9A U21G A41U G45A, the “polymerase ribozyme fitness (log ratio)” value is reported as -4.48.
With U9C G48U G52C C94U the “polymerase ribozyme fitness (log ratio)” value was -2.36.
For C8G G63A G127C, the “polymerase ribozyme fitness (log ratio)” value was -1.12.
In the case of C8U G42A A111G U116A A121G C124G, the “polymerase ribozyme fitness (log ratio)” value is reported as -2.21.
For C8U G77C, the “polymerase ribozyme fitness (log ratio)” value was -0.262.
In the case of U9A A50C A91G U106C, the “polymerase ribozyme fitness (log ratio)” value is reported as -1.11.
With U9G C70A G71A G127C the “polymerase ribozyme fitness (log ratio)” value was -4.46.
In the case of U9C C31G U92A G93C C114A, the “polymerase ribozyme fitness (log ratio)” value is reported as -5.25.
With U9A A27U G42U the “polymerase ribozyme fitness (log ratio)” value was -4.71.
In the case of C8U G61U A84C G120U, the “polymerase ribozyme fitness (log ratio)” value is reported as 1.93.
With C8U C40U G51C G120C the “polymerase ribozyme fitness (log ratio)” value was -1.98.
For U9A G47U C97G C99U G120U U130C, the “polymerase ribozyme fitness (log ratio)” value was -5.08.
With U9A C53U C72U U92A G127A the “polymerase ribozyme fitness (log ratio)” value was -3.85.
With C8U G65A the “polymerase ribozyme fitness (log ratio)” value was -4.53.
For U9C C22U A46C A103G G113C, the “polymerase ribozyme fitness (log ratio)” value was -7.29.
For C8U G113A A121G, the “polymerase ribozyme fitness (log ratio)” value was -0.604.
For C8G G57A G117A A119U G135U, the “polymerase ribozyme fitness (log ratio)” value was -2.27.
In the case of U9A C115G, the “polymerase ribozyme fitness (log ratio)” value is reported as 1.95.
With U9A G42A C70U U129A the “polymerase ribozyme fitness (log ratio)” value was -4.53.
With U9C C12A C86A C102A C104U C124A the “polymerase ribozyme fitness (log ratio)” value was -0.301.
In the case of U9C G48C C101A G117A, the “polymerase ribozyme fitness (log ratio)” value is reported as -1.58.
For U9A C13G G61U, the “polymerase ribozyme fitness (log ratio)” value was 0.255.
With U9G A26U C72U the “polymerase ribozyme fitness (log ratio)” value was -2.22.
With C8U C13G G110U the “polymerase ribozyme fitness (log ratio)” value was -1.09.
In the case of C8G U87A, the “polymerase ribozyme fitness (log ratio)” value is reported as 0.833.
For U9G A18C G117C, the “polymerase ribozyme fitness (log ratio)” value was 0.268.
For U9A U33A G36U C89G C124A, the “polymerase ribozyme fitness (log ratio)” value was -5.28.
In the case of U9C C13G C28G G45U G61A, the “polymerase ribozyme fitness (log ratio)” value is reported as -2.49.
With U9G A46U A91C G117A the “polymerase ribozyme fitness (log ratio)” value was -1.93.
For C8U C12A G35U G45C C53G C104U, the “polymerase ribozyme fitness (log ratio)” value was -6.79.
In the case of C8U G51A C64U C104G G120C, the “polymerase ribozyme fitness (log ratio)” value is reported as -6.76.
In the case of U9G A50U A74C G113C, the “polymerase ribozyme fitness (log ratio)” value is reported as -3.6.
In the case of C8U C12U C49U U116A G120U C123U U126C, the “polymerase ribozyme fitness (log ratio)” value is reported as -4.26.
In the case of U9G C31U, the “polymerase ribozyme fitness (log ratio)” value is reported as -4.02.
In the case of U9C C11U G61A C88G, the “polymerase ribozyme fitness (log ratio)” value is reported as -0.498.
With U9A A26G C101G C104A G122A the “polymerase ribozyme fitness (log ratio)” value was -3.48.
For C8U G19C G42U C62G A91G C123U, the “polymerase ribozyme fitness (log ratio)” value was -2.98.
With C8U C88U the “polymerase ribozyme fitness (log ratio)” value was 0.472.
In the case of C8U U32A U96A A121C U130C, the “polymerase ribozyme fitness (log ratio)” value is reported as -3.85.
With C8U G52C the “polymerase ribozyme fitness (log ratio)” value was -0.0551.
With U9C A43U C73U C79U A111G the “polymerase ribozyme fitness (log ratio)” value was -0.526.
With U9C U78C the “polymerase ribozyme fitness (log ratio)” value was 0.403.
With U9A C34A G51A C70U A121C the “polymerase ribozyme fitness (log ratio)” value was -6.25.
With U9C C56A A95C U116A the “polymerase ribozyme fitness (log ratio)” value was -2.12.
With C8U C12A G19U U59C G120A the “polymerase ribozyme fitness (log ratio)” value was -1.69.
For U9C A16U C72G C88A A95C A111U, the “polymerase ribozyme fitness (log ratio)” value was -6.59.
For C8U G44A C104U, the “polymerase ribozyme fitness (log ratio)” value was 0.0147.
In the case of C8U G58A G93U G117U G128C, the “polymerase ribozyme fitness (log ratio)” value is reported as -5.28.
With C8U G36U U78C C88G C101A the “polymerase ribozyme fitness (log ratio)” value was -3.59.
For C8G G61C C72A C97U U130A, the “polymerase ribozyme fitness (log ratio)” value was 0.551.
